Reference: US20200087373A1 (UNIVERSITY OF COPENHAGEN, published 2020)
Numbered stars: 1 amine (or outer) side, 2 acyl side, 3 side chain; on linkers, the order of the positions; unused ones are H or OH. Side chains are listed from the residue outwards. Ends that are not written are not given here. * marks the point of attachment. γGlu = O=C(O)[C@H](CCC(=O)[*:2])N[*:1]; Palmitoyl = CCCCCCCCCCCCCCCC(=O)*; GABA = NCCCC(=O)O

T1: human GIP receptor (human, UniProt P48546 22-466)
T1 sequence (looked up): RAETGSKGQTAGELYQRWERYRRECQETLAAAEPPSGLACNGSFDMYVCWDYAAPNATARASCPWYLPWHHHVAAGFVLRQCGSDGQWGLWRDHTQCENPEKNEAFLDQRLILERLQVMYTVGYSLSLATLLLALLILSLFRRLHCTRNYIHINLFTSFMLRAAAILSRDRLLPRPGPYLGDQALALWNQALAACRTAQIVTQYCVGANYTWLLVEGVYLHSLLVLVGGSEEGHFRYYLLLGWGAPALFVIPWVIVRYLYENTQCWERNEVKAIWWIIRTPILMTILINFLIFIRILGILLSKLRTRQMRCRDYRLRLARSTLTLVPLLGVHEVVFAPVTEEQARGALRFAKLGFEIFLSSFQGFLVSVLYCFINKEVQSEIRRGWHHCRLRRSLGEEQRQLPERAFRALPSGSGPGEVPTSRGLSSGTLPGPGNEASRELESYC

B1: AT165 [hGIP(3-30)NH2[H18K]-C16/18+y-aminobuturic acid] (peptide)
peptide: EGTFISDYSIAMDKIK([GABA-Palmitoyl])QQDFVNWLLAQK-NH2
modifications: N-terminus assumed
SMILES: CCCCCCCCCCCCCCCC(=O)NCCCC(=O)NCCCC[C@H](NC(=O)[C@@H](NC(=O)[C@H](CCCCN)NC(=O)[C@H](CC(=O)O)NC(=O)[C@H](CCSC)NC(=O)[C@H](C)NC(=O)[C@@H](NC(=O)[C@H](CO)NC(=O)[C@H](Cc1ccc(O)cc1)NC(=O)[C@H](CC(=O)O)NC(=O)[C@H](CO)NC(=O)[C@@H](NC(=O)[C@H](Cc1ccccc1)NC(=O)[C@@H](NC(=O)CNC(=O)[C@@H](N)CCC(=O)O)[C@@H](C)O)[C@@H](C)CC)[C@@H](C)CC)[C@@H](C)CC)C(=O)N[C@@H](CCC(N)=O)C(=O)N[C@@H](CCC(N)=O)C(=O)N[C@@H](CC(=O)O)C(=O)N[C@@H](Cc1ccccc1)C(=O)N[C@H](C(=O)N[C@@H](CC(N)=O)C(=O)N[C@@H](Cc1c[nH]c2ccccc12)C(=O)N[C@@H](CC(C)C)C(=O)N[C@@H](CC(C)C)C(=O)N[C@@H](C)C(=O)N[C@@H](CCC(N)=O)C(=O)N[C@@H](CCCCN)C(N)=O)C(C)C
B2: AT131 [hGIP(3-30)NH2[D15E; H18A]-C16/16] (peptide)
peptide: EGTFISDYSIAMEK(Palmitoyl)IAQQDFVNWLLAQK-NH2
modifications: N-terminus assumed
SMILES: CCCCCCCCCCCCCCCC(=O)NCCCC[C@H](NC(=O)[C@H](CCC(=O)O)NC(=O)[C@H](CCSC)NC(=O)[C@H](C)NC(=O)[C@@H](NC(=O)[C@H](CO)NC(=O)[C@H](Cc1ccc(O)cc1)NC(=O)[C@H](CC(=O)O)NC(=O)[C@H](CO)NC(=O)[C@@H](NC(=O)[C@H](Cc1ccccc1)NC(=O)[C@@H](NC(=O)CNC(=O)[C@@H](N)CCC(=O)O)[C@@H](C)O)[C@@H](C)CC)[C@@H](C)CC)C(=O)N[C@H](C(=O)N[C@@H](C)C(=O)N[C@@H](CCC(N)=O)C(=O)N[C@@H](CCC(N)=O)C(=O)N[C@@H](CC(=O)O)C(=O)N[C@@H](Cc1ccccc1)C(=O)N[C@H](C(=O)N[C@@H](CC(N)=O)C(=O)N[C@@H](Cc1c[nH]c2ccccc12)C(=O)N[C@@H](CC(C)C)C(=O)N[C@@H](CC(C)C)C(=O)N[C@@H](C)C(=O)N[C@@H](CCC(N)=O)C(=O)N[C@@H](CCCCN)C(N)=O)C(C)C)[C@@H](C)CC
B3: AT109 (E3pGlu, C16 at position 16) (peptide)
peptide: EGTFISDYSIAMDKIHQQDFVNWLLAQK
modifications: pyroglutamic acid (pGlu) in place of Glu at position 3 in GIP numbering (residue 1 of the entry); C16 (palmitoyl) fatty acid on Lys at position 16 (residue 14 of the entry); C-terminal amide taken from the series hGIP(3-30)NH2
B4: AT164 [hGIP(3-30)NH2[H18K]-C16/18+y-glutamic acid] (peptide)
peptide: EGTFISDYSIAMDKIK([γGlu-Palmitoyl])QQDFVNWLLAQK-NH2
modifications: N-terminus assumed
SMILES: CCCCCCCCCCCCCCCC(=O)N[C@@H](CCC(=O)NCCCC[C@H](NC(=O)[C@@H](NC(=O)[C@H](CCCCN)NC(=O)[C@H](CC(=O)O)NC(=O)[C@H](CCSC)NC(=O)[C@H](C)NC(=O)[C@@H](NC(=O)[C@H](CO)NC(=O)[C@H](Cc1ccc(O)cc1)NC(=O)[C@H](CC(=O)O)NC(=O)[C@H](CO)NC(=O)[C@@H](NC(=O)[C@H](Cc1ccccc1)NC(=O)[C@@H](NC(=O)CNC(=O)[C@@H](N)CCC(=O)O)[C@@H](C)O)[C@@H](C)CC)[C@@H](C)CC)[C@@H](C)CC)C(=O)N[C@@H](CCC(N)=O)C(=O)N[C@@H](CCC(N)=O)C(=O)N[C@@H](CC(=O)O)C(=O)N[C@@H](Cc1ccccc1)C(=O)N[C@H](C(=O)N[C@@H](CC(N)=O)C(=O)N[C@@H](Cc1c[nH]c2ccccc12)C(=O)N[C@@H](CC(C)C)C(=O)N[C@@H](CC(C)C)C(=O)N[C@@H](C)C(=O)N[C@@H](CCC(N)=O)C(=O)N[C@@H](CCCCN)C(N)=O)C(C)C)C(=O)O
B5: hGIP(3-30)NH2 (peptide)
peptide: EGTFISDYSIAMDKIHQQDFVNWLLAQK-NH2

Assays:
human GIP receptor [1] = target: T1, human GIP receptor; assay: cell-based or functional assay
human GIP receptor [2] = target: T1, human GIP receptor; assay: cell-based or functional assay; remark: listed apart in the source
human GIP receptor [3] = target: T1, human GIP receptor; assay: 125I-hGIP(1-42) competition binding, COS-7 cells expressing human GIPR
Procedure: (§1) After incubation, the cells were washed twice in ice-cold binding buffer (+/−2% HSA) and lysed using 200 mM NaOH with 1% SDS for 30 min. Nonspecific binding was determined as the binding of radioactive ligand to untransfected cells.

human GIP receptor [4] = target: T1, human GIP receptor; assay: 125I-hGIP competition binding on hGIPR COS-7 cells; fold in affinity, paired, reference taken as GIP(3-30)NH2
Procedure: as §1

Binder	cAMP accumulation Fold change (from GIP(3-30)NH2) (human GIP receptor [1])	cAMP accumulation IC50 (human GIP receptor [1])	cAMP accumulation logIC50 (human GIP receptor [1])	cAMP - antagonisme IC50 (human GIP receptor [2])	cAMP - antagonisme fold (paired) (human GIP receptor [2])	IC50 (human GIP receptor [3])	fold (paired) (human GIP receptor [4])
B1	2.9 fold	22.4 nM	-7.65 log(M)				
B2				65 nM	1.1 fold	6510 nM	49 fold
B3					8 fold	1580 nM	74 fold
B4	6.3 fold	10.2 nM	-7.99 log(M)				
B5		64.6 nM	-7.19 log(M)				
